In publication PMC6675122, “N-terminal β-strand underpins biochemical specialization of an ATG8 isoform” (PLoS Biology, 2019):
“Also recorded” adds a separate entry of the source.

Test system: ATG8
Assay: in planta Co-IP, Vps4 with ATG8 (ATG8-2.2, ATG8-4, ATG8-4-S3)
Format: binding, Solanum tuberosum

B1: Vps4: potato vacuolar protein sorting 4; known as SKD1 in A. thaliana; ESCRT function (protein)
chain: MYSNFKEQAIEFVRQAVQEDNGGNYAKAFPLYMNALEYFKTHLKYEKNPKIKEAITQKFTEYLRRAEEIRAVLDEGGSGPGPNGGDAAVMAKPKTKPKDGEDGEDPEQSKLRAGLNSAIVREKPNVKWNDVAGLESAKQALQEAVILPVKFPQFFTGKRRPWRAFLLYGPPGTGKSYLAKAVATEAESTFFSVSSSDLVSKWMGESEKLVSNLFQMARESAPSIIFVDEIDSLCGQRGEGNESEASRRIKTELLVQMQGVGHNDDKVLVLAATNTPYALDQAIRRRFDKRIYIPLPDLKARQHMFKVHLGDTPHNLSESDFEDLARKTEGFSGSDVSVCVKDVLFEPVRKTQDAVFFTQTSNGTWIPCGPKQQGAVQTTMQELDAKGLASQIIPPPITKTDFDKVLARQRPTVSKSDLEVHDRFTKEFGEEG
- dependence of Vps4 binding on the ATG8 first β-strand (Co-IP, ATG8-2.2, ATG8-4 and ATG8-4-S3): the role of the N-terminal β-strand region in conferring binding to AIM-containing proteins was confirmed; also recorded: The ATG8 region surrounding the first β-strand is responsible for discriminatory binding to potato Vps4
- interaction of Vps4 with ATG8 (Vps4:3xMyc co-expressed with GFP:ATG8 in N. benthamiana, anti-GFP IP, immunoblot): direct interaction between Vps4 and ATG8
